*1 amine or outer side, *2 acyl side, *3 side chain or, on linkers, in order; H or OH if unused. Bridges are numbered along the chain shown (N, C = ends). Primed or numbered codes have the meaning given here. Where no end group is shown, it is not given here. Side-chain parts run from the residue outwards. [ ]: non-standard residue; d: D form. The star is where a group is joined. dpeg″ = spacer —[CO(CH2)O(CH2)2O(CH2)NH]—, O=C(COCCOCN[*:1])[*:2]; dpeg = —[CO(CH2)O(CH2)2O(CH2)NH]— spacer, O=C(COCCOCN[*:1])[*:2]; C20 diacid = O=C(O)CCCCCCCCCCCCCCCCCCC(=O)*; γGlu = O=C(O)[C@H](CCC(=O)[*:2])N[*:1]; NMeE = CN[C@@H](CCC(=O)O)C(=O)O; Aib = CC(C)(N)C(=O)O
B1: Compound A12 (peptide)
peptide: YSHGTFTSDYSKYLDK([γGlu-γGlu-dpeg″-C20 diacid])KYAEEFVKWLEDEPSSGAPPPS-OH
modifications: lactam 20-24
B2: Compound A29 (peptide)
peptide: YSHGTFTSDYSKYLD[Aib]KYAQK([γGlu-γGlu-dpeg″-C20 diacid])FVKWLEEEPSSGAPPPS-OH
modifications: lactam 24-28; N-terminus assumed
SMILES: CC(C)C[C@@H]1NC(=O)[C@H](Cc2c[nH]c3ccccc23)NC(=O)[C@@H](NC(=O)[C@@H](NC(=O)[C@H](Cc2ccccc2)NC(=O)[C@H](CCCCNC(=O)CC[C@H](NC(=O)CC[C@H](NC(=O)COCCOCNC(=O)CCCCCCCCCCCCCCCCCCC(=O)O)C(=O)O)C(=O)O)NC(=O)[C@H](CCC(N)=O)NC(=O)[C@H](C)NC(=O)[C@H](Cc2ccc(O)cc2)NC(=O)[C@H](CCCCN)NC(=O)C(C)(C)NC(=O)[C@H](CC(=O)O)NC(=O)[C@H](CC(C)C)NC(=O)[C@H](Cc2ccc(O)cc2)NC(=O)[C@H](CCCCN)NC(=O)[C@H](CO)NC(=O)[C@H](Cc2ccc(O)cc2)NC(=O)[C@H](CC(=O)O)NC(=O)[C@H](CO)NC(=O)[C@@H](NC(=O)[C@H](Cc2ccccc2)NC(=O)[C@@H](NC(=O)CNC(=O)[C@H](Cc2c[nH]cn2)NC(=O)[C@H](CO)NC(=O)[C@@H](N)Cc2ccc(O)cc2)[C@@H](C)O)[C@@H](C)O)C(C)C)CCCCNC(=O)CC[C@@H](C(=O)N[C@@H](CCC(=O)O)C(=O)N2CCC[C@H]2C(=O)N[C@@H](CO)C(=O)N[C@@H](CO)C(=O)NCC(=O)N[C@@H](C)C(=O)N2CCC[C@H]2C(=O)N2CCC[C@H]2C(=O)N2CCC[C@H]2C(=O)N[C@@H](CO)C(=O)O)NC(=O)[C@H](CCC(=O)O)NC1=O
B3: Compound A4 (peptide)
peptide: YSHGTFTSDYSKYLD[Aib]KK([γGlu-γGlu-dpeg-C20 diacid])AQEFV[Aib]WLEDEPSSGAPPPS-OH
B4: Compound A11 (peptide)
peptide: YSHGTFTSDYSKYLDK([γGlu-γGlu-dpeg″-C20 diacid])KYAKEFVEWLEDEPSSGAPPPS-OH
modifications: lactam 20-24
B5: Compound A9 (peptide)
peptide: YSHGTFTSDYSKYLDK([γGlu-γGlu-dpeg-C20 diacid])KYAQEF[Aib]KWLEDEPSSGAPPPS-OH
B6: Compound A3 (peptide)
peptide: YSHGTFTSDYSKYLD[Aib]K([γGlu-γGlu-dpeg-C20 diacid])YAQEFV[Aib]WLEDEPSSGAPPPS-OH
B7: Compound A23 (peptide)
peptide: YSHGTFTSDYSKYLDK([γGlu-γGlu-dpeg-C20 diacid])KYAEEFV[Aib]WLESEPSSGAPPPS-OH
B8: Compound A5 (peptide)
peptide: YSHGTFTSDYSKYLD[Aib]KYAK([γGlu-γGlu-dpeg-C20 diacid])EFV[Aib]WLEDEPSSGAPPPS-OH
B9: Compound A21 (peptide)
peptide: YSHGTFTSDYSKYLDK([γGlu-γGlu-dpeg″-C20 diacid])KYAEKFVKWLEDEPSSGAPPPS-OH
modifications: lactam 20-24
B10: Compound A16 (peptide)
peptide: YSHGTFTSDYSKYLDK([γGlu-γGlu-dpeg-C20 diacid])KYAQEFV[Aib]WLENEPSSGAPPPS-OH
B11: Compound A13 (peptide)
peptide: YSHGTFTSDYSKYLDK([γGlu-γGlu-C20 diacid])KYAQEFV[Aib]WLEDEPSSGAPPPS-OH
modifications: N-terminus assumed
SMILES: CC(C)C[C@H](NC(=O)[C@H](Cc1ccc(O)cc1)NC(=O)[C@H](CCCCN)NC(=O)[C@H](CO)NC(=O)[C@H](Cc1ccc(O)cc1)NC(=O)[C@H](CC(=O)O)NC(=O)[C@H](CO)NC(=O)[C@@H](NC(=O)[C@H](Cc1ccccc1)NC(=O)[C@@H](NC(=O)CNC(=O)[C@H](Cc1c[nH]cn1)NC(=O)[C@H](CO)NC(=O)[C@@H](N)Cc1ccc(O)cc1)[C@@H](C)O)[C@@H](C)O)C(=O)N[C@@H](CC(=O)O)C(=O)N[C@@H](CCCCNC(=O)CC[C@H](NC(=O)CC[C@H](NC(=O)CCCCCCCCCCCCCCCCCCC(=O)O)C(=O)O)C(=O)O)C(=O)N[C@@H](CCCCN)C(=O)N[C@@H](Cc1ccc(O)cc1)C(=O)N[C@@H](C)C(=O)N[C@@H](CCC(N)=O)C(=O)N[C@@H](CCC(=O)O)C(=O)N[C@@H](Cc1ccccc1)C(=O)N[C@H](C(=O)NC(C)(C)C(=O)N[C@@H](Cc1c[nH]c2ccccc12)C(=O)N[C@@H](CC(C)C)C(=O)N[C@@H](CCC(=O)O)C(=O)N[C@@H](CC(=O)O)C(=O)N[C@@H](CCC(=O)O)C(=O)N1CCC[C@H]1C(=O)N[C@@H](CO)C(=O)N[C@@H](CO)C(=O)NCC(=O)N[C@@H](C)C(=O)N1CCC[C@H]1C(=O)N1CCC[C@H]1C(=O)N1CCC[C@H]1C(=O)N[C@@H](CO)C(=O)O)C(C)C
B12: Compound A1 (peptide)
peptide: YSHGTFTSDYSKYLK([γGlu-γGlu-dpeg-C20 diacid])[Aib]KYAQEFV[Aib]WLEDEPSSGAPPPS-OH
B13: Compound A22 (peptide)
peptide: YSHGTFTSDYSKYLDK([γGlu-γGlu-dpeg-C20 diacid])KYAKEFV[Aib]WLESEPSSGAPPPS-OH
B14: Compound A10 (peptide)
peptide: YSHGTFTSDYSKYLDK([γGlu-γGlu-dpeg-C20 diacid])KYAQEF[Aib]SWLEDEPSSGAPPPS-OH
B15: Compound A24 (peptide)
peptide: YSHGTFTSDYSKYLDK([γGlu-γGlu-dpeg-C20 diacid])KYASEFV[Aib]WLESEPSSGAPPPS-OH
B16: Compound A20 (peptide)
peptide: YSHGTFTSDYSKYLDK([γGlu-γGlu-dpeg-C20 diacid])KYAQEFV[Aib]WLEKEPSSGAPPPS-OH
B17: Compound A19 (peptide)
peptide: YSHGTFTSDYSKYLDK([γGlu-γGlu-dpeg-C20 diacid])KYAQEFV[Aib]WLESEPSSGAPPPS-OH
B18: Compound A18 (peptide)
peptide: YSHGTFTSDYSKYLDK([γGlu-γGlu-dpeg-C20 diacid])KYAQEFV[Aib]WLE[NMeE]EPSSGAPPPS-OH
B19: Compound A15 (peptide)
peptide: YSHGTFTSDYSKYLDK([γGlu-γGlu-dpeg-C20 diacid])KYAQEFV[Aib]WLEEEPSSGAPPPS-OH
B20: Compound A2 (peptide)
peptide: YSHGTFTSDYSKYLDK([γGlu-γGlu-dpeg-C20 diacid])KYAQEFV[Aib]WLEDEPSSGAPPPS-OH
B21: Compound A14 (peptide)
peptide: YSHGTFTSDYSKYLD[Aib]KYAQK([γGlu-γGlu-C20 diacid])FV[Aib]WLEDEPSSGAPPPS-OH
modifications: N-terminus assumed
SMILES: CC(C)C[C@H](NC(=O)[C@H](Cc1ccc(O)cc1)NC(=O)[C@H](CCCCN)NC(=O)[C@H](CO)NC(=O)[C@H](Cc1ccc(O)cc1)NC(=O)[C@H](CC(=O)O)NC(=O)[C@H](CO)NC(=O)[C@@H](NC(=O)[C@H](Cc1ccccc1)NC(=O)[C@@H](NC(=O)CNC(=O)[C@H](Cc1c[nH]cn1)NC(=O)[C@H](CO)NC(=O)[C@@H](N)Cc1ccc(O)cc1)[C@@H](C)O)[C@@H](C)O)C(=O)N[C@@H](CC(=O)O)C(=O)NC(C)(C)C(=O)N[C@@H](CCCCN)C(=O)N[C@@H](Cc1ccc(O)cc1)C(=O)N[C@@H](C)C(=O)N[C@@H](CCC(N)=O)C(=O)N[C@@H](CCCCNC(=O)CC[C@H](NC(=O)CC[C@H](NC(=O)CCCCCCCCCCCCCCCCCCC(=O)O)C(=O)O)C(=O)O)C(=O)N[C@@H](Cc1ccccc1)C(=O)N[C@H](C(=O)NC(C)(C)C(=O)N[C@@H](Cc1c[nH]c2ccccc12)C(=O)N[C@@H](CC(C)C)C(=O)N[C@@H](CCC(=O)O)C(=O)N[C@@H](CC(=O)O)C(=O)N[C@@H](CCC(=O)O)C(=O)N1CCC[C@H]1C(=O)N[C@@H](CO)C(=O)N[C@@H](CO)C(=O)NCC(=O)N[C@@H](C)C(=O)N1CCC[C@H]1C(=O)N1CCC[C@H]1C(=O)N1CCC[C@H]1C(=O)N[C@@H](CO)C(=O)O)C(C)C
B22: Compound A17 (peptide)
peptide: YSHGTFTSDYSKYLDK([γGlu-γGlu-dpeg-C20 diacid])KYAQEFV[Aib]WLEQEPSSGAPPPS-OH
B23: Compound A25 (peptide)
peptide: YSHGTFTSDYSKYLDK([γGlu-γGlu-dpeg″-C20 diacid])KYAEKFVKWLEEEPSSGAPPPS-OH
modifications: lactam 20-24
B24: Compound A8 (peptide)
peptide: YSHGTFTSDYSKYLDK([γGlu-γGlu-dpeg-C20 diacid])KYAQEF[Aib]EWLEDEPSSGAPPPS-OH

How the values were obtained:
[1] = target: human Glucagon receptor (GCGR) (human, UniProt P47871 26-477); assay: cell-based or functional assay
[2] = target: human GLP-1 receptor (GLP-1R) (human, UniProt P43220 24-463); assay: cell-based or functional assay
Sequence of human GLP-1 receptor (GLP-1R) (P43220 24-463): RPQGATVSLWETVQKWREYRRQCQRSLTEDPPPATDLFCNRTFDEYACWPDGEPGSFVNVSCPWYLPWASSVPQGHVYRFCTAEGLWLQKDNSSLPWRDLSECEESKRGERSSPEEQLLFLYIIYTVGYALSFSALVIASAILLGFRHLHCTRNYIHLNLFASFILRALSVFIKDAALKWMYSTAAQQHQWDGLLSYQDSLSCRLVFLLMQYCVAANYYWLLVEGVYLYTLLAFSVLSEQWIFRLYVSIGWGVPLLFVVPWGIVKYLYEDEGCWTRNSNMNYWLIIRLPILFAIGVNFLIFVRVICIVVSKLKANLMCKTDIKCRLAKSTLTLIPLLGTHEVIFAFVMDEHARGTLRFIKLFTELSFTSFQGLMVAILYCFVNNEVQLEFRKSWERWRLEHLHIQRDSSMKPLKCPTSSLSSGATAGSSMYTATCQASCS

Row | Binder | pEC50, cAMP accumulation [1] | pEC50, cAMP accumulation [2]
1 | B1 | 11.8 pEC50 (-log M) | < 9 pEC50 (-log M)
2 | B2 |  | < 9 pEC50 (-log M)
3 | B3 | 11.7 pEC50 (-log M) | 
4 | B4 | 11.7 pEC50 (-log M) | < 9 pEC50 (-log M)
5 | B5 | 10.6 pEC50 (-log M) | < 9 pEC50 (-log M)
6 | B6 | 12.5 pEC50 (-log M) | 
7 | B7 | 11.5 pEC50 (-log M) | < 9 pEC50 (-log M)
8 | B8 | 11.6 pEC50 (-log M) | 
9 | B9 | 12.1 pEC50 (-log M) | < 9 pEC50 (-log M)
10 | B10 | 12.2 pEC50 (-log M) | < 9 pEC50 (-log M)
11 | B11 | 12 pEC50 (-log M) | < 9 pEC50 (-log M)
12 | B12 | 11.5 pEC50 (-log M) | 
13 | B13 | 11.7 pEC50 (-log M) | < 9 pEC50 (-log M)
14 | B14 | 10.4 pEC50 (-log M) | < 9 pEC50 (-log M)
15 | B15 | 12.5 pEC50 (-log M) | < 9 pEC50 (-log M)
16 | B16 | 12.1 pEC50 (-log M) | < 9 pEC50 (-log M)
17 | B17 | 12.1 pEC50 (-log M) | < 9 pEC50 (-log M)
18 | B18 | 10.4 pEC50 (-log M) | < 9 pEC50 (-log M)
19 | B19 | 12.1 pEC50 (-log M) | < 9 pEC50 (-log M)
20 | B20 | 12.5 pEC50 (-log M) | 
21 | B21 | 11.2 pEC50 (-log M) | < 9 pEC50 (-log M)
22 | B22 | 12.1 pEC50 (-log M) | < 9 pEC50 (-log M)
23 | B23 | 11.9 pEC50 (-log M) | < 9 pEC50 (-log M)
24 | B24 | 9.9 pEC50 (-log M) | < 9 pEC50 (-log M)

— patent publication US20240228572A1 (I2O THERAPEUTICS, published 2024)
